Key:
MYC = test: Northern blot of Myc in HCT116 clone; type: cell-based, human; details: HCT116 wild type allele-containing clone
Text: We next assessed the effects of FRP1 inhibition on the expression of Id2, Cyclin D1 and Myc, known targets of Wnt/β-catenin in colorectal cancer (Rockman et al. (2001) J. Biol. Chem. 276:45113-45119; Tetsu and McCormick (1999) Nature 398:422-426; He et al. (1998) Science 281:1509-1512). RNAs were extracted from HCT116 parental cells, and either wild type or mutant β-catenin allele containing clones transfected with either vector control or FRP1-HA using Triazol (Invitrogen). The RNAs were separated by (1%) agarose gel electrophoresis and transferred to a nylon membrane (Hybond®, Pharmacia). Probes were labeled by the Random Prime Labelling System method (Amersham Biosciences), and hybridization was performed overnight utilizing the Hybrisol I solution (Serologicals Corporation) according to the manufacturer's instructions. Normalization was performed utilizing a commercial human GADPH control probe (BD Biosciences Clontech).

HCT116 cell lines = test: Tumorigenicity of HCT116 cell lines injected subcutaneously in nude mice; type: in vivo
Experimental: To assess the effects of Wnt autocrine inhibition in vivo, tumorigenicity experiments were performed utilizing parental or β-catenin wild type allele containing HCT116 cell lines, in which stable marker selected mass cultures expressing FRP1 were obtained. Parental and wild type β-catenin allele containing HCT116 cells were transfected with either vector control or FRP1. Marker selected mass cultures of each were subcutaneously injected in 6 week old nude mice at 2.5×10^6 cells per site. Tumor growth was monitored at weekly intervals as previously described (Pierce et al. (1991) Oncogene 6:1189-1194). Values in FIG. 7F represent the mean (± standard deviation) of 4 inoculation cites per cell line. […] All of these findings establish that autocrine Wnt signaling can be present in human colon carcinoma cells that harbor downstream lesions within the canonical pathway.

B1: FRP1: human secreted Frizzled Related Protein 1, Wnt antagonist; expressed from pBabe-derived retrovirus with carboxy-terminal HA tag (protein, UniProt Q8N474 32-314, looked up)
Secreted frizzled-related …: SEYDYVSFQSDIGPYQSGRFYTKPPQCVDIPADLRLCHNVGYKKMVLPNLLEHETMAEVKQQASSWVPLLNKNCHAGTQVFLCSLFAPVCLDRPIYPCRWLCEAVRDSCEPVMQFFGFYWPEMLKCDKFPEGDVCIAMTPPNATEASKPQGTTVCPPCDNELKSEAIIEHLCASEFALRMKIKEVKKENGDKKIVPKKKKPLKLGPIKKKDLKKLVLYLKNGADCPCHQLDNLSHHFLIMGRKVKSQYLLTAIHKWDKKNKEFKNFMKKMKNHECPTFQSVFK
modifications: C-terminal HA tag
notes: human secreted Frizzled Related Protein 1, Wnt antagonist; expressed from pBabe-derived retrovirus with carboxy-terminal HA tag
expression of Myc (MYC): dramatically inhibited
tumor growth (HCT116 cell lines; parental HCT116 cells expressing FRP1, subcutaneous in nude mice): no effect
tumor forming ability (HCT116 cell lines; β-catenin wild type allele containing HCT116 cells expressing FRP1, subcutaneous in nude mice): striking reduction

Reference: US8809287B2, “Compositions and methods for altering Wnt autocrine signaling” (Icahn School of Medicine at Mount Sinai, priority 2004, dated 2014)
